According to patent US20120321697A1 (GWANGJU INSTITUTE OF SCIENCE AND TECHNOLOGY, published 2012):
No end group written: not given here. vector‑coded linker = not defined here

What was measured:
VCAM1-Trx [1] = target: T1, VCAM1-Trx (human, UniProt P19320 25-698); assay: SPR (Biacore), synthetic peptide; immobilisation of VCAM1 not described
T1 construct: the form used in SPR is not described; also called Trx-VCAM1; vascular cell adhesion molecule-1; not shown: Trx (thioredoxin) fusion partner and tags of pET32a
T1 sequence (looked up): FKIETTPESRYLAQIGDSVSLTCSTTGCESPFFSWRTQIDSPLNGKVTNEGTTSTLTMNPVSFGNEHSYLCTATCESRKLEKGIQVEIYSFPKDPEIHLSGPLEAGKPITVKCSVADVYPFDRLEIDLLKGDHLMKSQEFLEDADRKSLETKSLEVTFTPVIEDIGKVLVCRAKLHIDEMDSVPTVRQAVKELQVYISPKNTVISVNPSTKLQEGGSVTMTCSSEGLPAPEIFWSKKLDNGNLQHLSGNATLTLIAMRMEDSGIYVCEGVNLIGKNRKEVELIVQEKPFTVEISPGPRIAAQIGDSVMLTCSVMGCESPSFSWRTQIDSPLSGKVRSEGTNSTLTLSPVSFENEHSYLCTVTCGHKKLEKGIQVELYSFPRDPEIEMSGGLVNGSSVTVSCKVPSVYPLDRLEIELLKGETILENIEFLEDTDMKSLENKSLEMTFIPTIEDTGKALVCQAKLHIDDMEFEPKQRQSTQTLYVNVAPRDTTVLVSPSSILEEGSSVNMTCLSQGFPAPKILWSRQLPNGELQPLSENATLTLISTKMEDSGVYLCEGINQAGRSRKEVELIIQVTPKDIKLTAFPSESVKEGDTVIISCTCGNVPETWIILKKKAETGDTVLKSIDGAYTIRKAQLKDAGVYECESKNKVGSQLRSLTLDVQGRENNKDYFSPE

TNFa = target: T2, TNFa; assay: phage ELISA (anti-M13-HRP, absorbance at 450 nm), proteins coated at 5 µg/ml
T2 construct: Control protein; also called TNF-α

[2] = target: T3, Fibronectin ED-B protein (recombinant, N-terminal His-tag, biotinylated where captured on streptavidin) (human, UniProt P02751 1266-1356, biotin by sulfo-NHS-SS-biotin (for biopanning, input phage ELISA and SPR on SA chip)); assay: as above
T3 construct: domain: ED-B; Expressed in E. coli BL21 from pET28b; also called fibronectin extra domain B; biotinylated-EDB; not shown: N-terminal His-tag from pET28b

BSA = BSA (UniProt P02769 25-607); assay: as above
Trx = target: T4, Trx; assay: as above
T4 construct: Control for the fusion partner; also called thioredoxin; not shown: The His-tag/S-tag linker tail of pET32a, if Trx was expressed from the empty vector

VEGF121 = target: T5, VEGF121 (human, UniProt P15692-9 27-147); assay: as above
T5 construct: Isoform VEGF121; also called vascular endothelial growth factor
T5 sequence (looked up): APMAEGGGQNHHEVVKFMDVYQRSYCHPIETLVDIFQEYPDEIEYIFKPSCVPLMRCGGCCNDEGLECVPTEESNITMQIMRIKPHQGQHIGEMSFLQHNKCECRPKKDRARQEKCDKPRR

VCAM1-Trx [3] = target: T1, VCAM1-Trx; assay: SPR (Biacore)
[4] = target: T3, Fibronectin ED-B protein (recombinant, …); assay: phage ELISA on 10 coated proteins, absorbance at 450 nm
Method: Each protein (5 μg/ml) was seeded into wells (50 μl per well) in a 96-well ELISA plate and next day, all wells were washed with 0.1% PBST (Tween-20) three times, and blocked at room temperature for 2 hrs using 2% skim milk. Then, the solution was completely removed and the plate was washed with 0.1% PBST three times. Recombinant phages containing the peptide of the present invention were thoroughly mixed with 2% BSA. Each mixture (100 μl) was divided into wells coated with 10 proteins and kept to stand at 27° C. for 2 hrs. After washing with 0.1% PBST 5 times, HRP-conjugated anti-M13 antibodies (1:1,000 dilution; GE Healthcare) were added to each well and incubated at 27° C. for 1 hr. After washing with 0.1% PBST 5 times, 100 μl TMB was divided into each well to induce colorimetric reaction, followed by stopping the reaction adding 100 μl of 1 M HCl. The absorbance was measured at 450 nm.

[5] = target: T3, Fibronectin ED-B protein (recombinant, …); assay: SPR (Biacore X), biotin-EDB on streptavidin chip
Method: (§1) We tested using a SPR device whether the purified GST-BPB protein can bind to fibronectin EDB. […] PBS (pH 7.4) was used as a running buffer and the flow rate was 30 μ1/min. The kinetics was measured in various concentrations and then the affinity was calculated using BIAevaluation.
The affinity of the GST-BPB to fibronectin ED-B was measured using the SPR biacore system.

[6] = target: T3, Fibronectin ED-B protein (recombinant, …); assay: SPR (Biacore X), biotin-EDB on streptavidin chip up to 2000 RU
Method: as §1

T3 sequence (P02751 1266-1356): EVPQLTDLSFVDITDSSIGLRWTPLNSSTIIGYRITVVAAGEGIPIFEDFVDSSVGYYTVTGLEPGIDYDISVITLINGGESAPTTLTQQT
Sequence of BSA (P02769 25-607 limits assumed): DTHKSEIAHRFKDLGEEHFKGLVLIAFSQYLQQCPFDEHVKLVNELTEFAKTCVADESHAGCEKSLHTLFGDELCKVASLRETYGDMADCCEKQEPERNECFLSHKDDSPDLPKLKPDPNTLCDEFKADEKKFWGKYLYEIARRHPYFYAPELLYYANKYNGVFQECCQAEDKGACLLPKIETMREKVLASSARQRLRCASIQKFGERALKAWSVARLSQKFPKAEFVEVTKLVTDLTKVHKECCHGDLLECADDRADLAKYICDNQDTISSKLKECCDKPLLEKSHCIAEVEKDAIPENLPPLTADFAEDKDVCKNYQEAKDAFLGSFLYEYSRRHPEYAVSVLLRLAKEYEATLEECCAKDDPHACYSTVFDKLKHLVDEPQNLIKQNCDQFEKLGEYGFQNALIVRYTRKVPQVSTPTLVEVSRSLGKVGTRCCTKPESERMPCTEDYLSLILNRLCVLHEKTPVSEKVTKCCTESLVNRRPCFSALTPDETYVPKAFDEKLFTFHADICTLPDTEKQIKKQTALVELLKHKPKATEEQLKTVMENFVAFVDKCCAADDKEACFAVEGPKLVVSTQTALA

B1: Peptide 1 specific to VCAM1 (Table 3c) (peptide)
peptide: QARDCTGSWTWENGKWTWKGPSICPI
notes: Synthetic peptide in SPR; also called BPB
With B1 as the binder, how does the Kd (VCAM1-Trx [1]) read?
The Kd was 318 nM.

Does B1 bind (TNFa)?
Result: no binding

Does B1 bind [2]?
Result: no binding

Does B1 bind (BSA)?
Result: no binding

Does B1 bind (Trx)?
Result: no binding

Does B1 bind (VEGF121)?
Result: no binding

And the koff (VCAM1-Trx [3])?
Its koff is 0.1 s⁻¹.

What about the kon (VCAM1-Trx [3]) of the same binder?
The kon was 330000 M⁻¹ s⁻¹.

B2: Peptide 2 specific to fibronectin ED-B (Table 3a) (peptide)
peptide: HCSSAVGSWTWENGKWTWKGIIRLEQ
notes: Synthetic peptide in SPR; also called tryptophan zipper
B2 was tested. Which “fold absorbance against other proteins” value [4] did it give?
Its value is 30 fold.

B3: GST-BPB fusion protein for fibronectin EDB (other)
chain: {GST-vector‑coded linker}-HCSSAVGSWTWENGKWTWKGIIRLEQ
modifications: not fully specified; reading uncertain
notes: BPB insert cloned BamHI/XhoI into pGEX4T-1, expressed in E. coli BL21; The reverse primer GST-B1 may add a few residues after the BPB; not shown: glutathione S-transferase (GST) as coded by the pGEX4T-1 vector (GE Healthcare); vector-coded linker between GST and BPB
What does the source list for B3?
koff [5]: 0.00347 s⁻¹; kon [5]: 12200 M⁻¹ s⁻¹; Kd [6]: 284 nM
